From US20240376207A1 (JIANGSU HENGRUI PHARMACEUTICALS, published 2024)

T1: his-tagged human PVRIG (h-PVRIG-his) recombinant protein (human, UniProt Q6DKI7 41-171, limits assumed)
T1 construct: bought from Acrobiosystems; also called Human PVRIG-his; human PVRIG recombinant protein; not shown: his tag
T1 sequence (looked up): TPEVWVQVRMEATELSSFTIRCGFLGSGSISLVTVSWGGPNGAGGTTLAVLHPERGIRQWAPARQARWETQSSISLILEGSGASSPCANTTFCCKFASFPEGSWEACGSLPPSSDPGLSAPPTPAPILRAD

T2: human PVRIG expressed on cells (human, UniProt Q6DKI7 41-326)
T2 sequence (looked up): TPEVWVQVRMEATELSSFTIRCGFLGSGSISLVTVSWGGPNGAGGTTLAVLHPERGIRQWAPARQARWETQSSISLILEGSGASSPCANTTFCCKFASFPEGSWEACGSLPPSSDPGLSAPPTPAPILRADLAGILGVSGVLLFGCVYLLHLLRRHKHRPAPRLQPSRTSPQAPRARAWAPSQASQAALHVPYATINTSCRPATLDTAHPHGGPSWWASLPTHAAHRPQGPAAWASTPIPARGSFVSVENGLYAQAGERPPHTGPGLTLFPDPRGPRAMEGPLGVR

T3: his-tagged cynomolgus monkey PVRIG (cyno-PVRIG-his) recombinant protein (cynomolgus monkey)
T3 construct: expressed in HEK293, purified by Ni-NTA; also called Monkey PVRIG-his; cynomolgus monkey PVRIG recombinant protein
T3 chain: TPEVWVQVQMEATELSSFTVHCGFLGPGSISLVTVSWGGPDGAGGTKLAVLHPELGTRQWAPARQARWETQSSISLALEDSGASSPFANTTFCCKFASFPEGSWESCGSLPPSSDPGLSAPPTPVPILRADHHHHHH

T4: human IgG1 Fc-tagged mouse PVRIG (m-PVRIG-hIgG1 Fc) (mouse, UniProt A0A1B0GS01 35-165)
T4 construct: bought from Acrobiosystems; also called Mouse PVRIG-Fc; mouse PVRIG recombinant protein; not shown: human IgG1 Fc tag of the Acrobiosystems product, and any linker to it
T4 sequence: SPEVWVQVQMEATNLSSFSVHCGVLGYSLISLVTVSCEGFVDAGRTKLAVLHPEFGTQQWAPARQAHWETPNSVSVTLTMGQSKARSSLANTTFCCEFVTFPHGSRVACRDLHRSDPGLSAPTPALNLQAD

T5: human TIGIT recombinant protein (human, UniProt Q495A1 22-141, limits assumed)
T5 construct: construct not described; also called human TIGT recombinant protein
T5 sequence (looked up): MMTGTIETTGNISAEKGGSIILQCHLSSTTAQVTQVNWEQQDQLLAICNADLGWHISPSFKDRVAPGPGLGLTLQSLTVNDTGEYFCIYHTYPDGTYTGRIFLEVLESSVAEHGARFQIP

B1: anti-PVRIG antibody 39 (antibody, human IgG4 S228P, F234A L235A, V domains shown)
VH: QVQLVESGGGSVQAGGSLRLSCAASRYTSRTDCMGWFRQAPGKEREGVAHIDSDGIPRYVESVKGRFTISQDHAKNTLYLQMNSLKPEDSATYYCVVGFKFGDYCAPNDWGQGTQVTVSS
notes: no light chain
B2: anti-PVRIG antibody 30 (antibody, human IgG4 S228P, F234A L235A, V domains shown)
VH: HVQLVESGGGSVQAGGSLRLSCEASGYSYSGDCMGWFRRAPGKERDEGVATIDNAGRIKYADSVKGRFTISHGNGKYILYLQMNSLKPEDTDMYYCAAGWTFGGNCSPADWGQGTQVTVSS
notes: no light chain
B3: anti-PVRIG antibody 151 (antibody, human IgG4 S228P, F234A L235A, V domains shown)
VH: HVQLVESGGGSVQAGGSLRLSCVASASGFTYRPYCMAWFRQAPGKEREAVAGIDIFGGTTYADSVKGRFTASRDNAGFSLFLQMNDLKPEDTAMYYCAAGDSPDGRCPPLGQGLNYWGQGTQVTVSS
notes: no light chain
B4: anti-PVRIG antibody 38 (antibody, human IgG4 S228P, F234A L235A, V domains shown)
VH: QVQLVESGGGSVQAGGSLRLSCAASPSTYGPSDMAWFRQAPGKQREGVATISAAGRLTYYTDSVRGRFTISRDNAKNTMYLQMNSLKPEDTAMYYCAADFAGGSSLFADYKYWGQGTQVTVSS
notes: no light chain
B5: positive antibody Tab5 (antibody, human IgG4 S228P, kappa, F234A L235A, V domains shown)
VH: EVQLVESGGGVVKPGGSLRLSCAASGFTFGTSSMNWVRQAPGKGLEWVAVISFDGTEIHYADSVKGRFTISRDNSKSTVFLQMNSLRPDDTALYYCAKGSGNIYFYSGMDVWGQGTTVTVSS
VL: DIQMTQSPSTLSASVGDRVTITCRAGQSISGWLAWFQQKPGKAPNLLIYETSTLESGVPSRFSGSGSGTEYTLTISSLQPDDFATYYCQQYYSYPLTFGQGTKVEIKR
notes: Variable regions of CPA.7.021 (WO2016134333A1) on human IgG4 (S228P/F234A/L235A/K447A) and human kappa constant regions
B6: humanized anti-PVRIG/TIGIT bispecific antibody 1708-20H5 (bispecific antibody, human IgG4 S228P, kappa)
heavy: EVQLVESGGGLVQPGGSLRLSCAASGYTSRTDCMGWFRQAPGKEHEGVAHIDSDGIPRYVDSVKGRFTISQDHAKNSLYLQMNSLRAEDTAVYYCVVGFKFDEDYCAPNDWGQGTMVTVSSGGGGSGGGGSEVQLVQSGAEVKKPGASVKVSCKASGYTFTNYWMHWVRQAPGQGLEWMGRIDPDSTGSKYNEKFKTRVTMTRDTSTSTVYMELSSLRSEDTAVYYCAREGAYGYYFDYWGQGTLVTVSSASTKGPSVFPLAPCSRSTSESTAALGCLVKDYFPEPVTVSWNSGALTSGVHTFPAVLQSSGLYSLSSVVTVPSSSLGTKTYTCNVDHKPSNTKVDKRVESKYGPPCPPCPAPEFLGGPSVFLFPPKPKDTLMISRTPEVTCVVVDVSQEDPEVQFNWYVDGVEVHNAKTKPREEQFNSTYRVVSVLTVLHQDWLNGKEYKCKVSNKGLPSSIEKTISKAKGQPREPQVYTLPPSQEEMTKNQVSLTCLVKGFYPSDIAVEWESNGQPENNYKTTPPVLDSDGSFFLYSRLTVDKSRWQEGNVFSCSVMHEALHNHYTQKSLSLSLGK
light: DIQMTQSPSSLSASVGDRVTITCRASENIYSYLAWYQQKPGKSPKLLIYNARTLAEGVPSRFSGSGSGTDFTLTISSLQPEDFATYYCQYHSGSPLPFGGGTKVEIKRTVAAPSVFIFPPSDEQLKSGTASVVCLLNNFYPREAKVQWKVDNALQSGNSQESVTEQDSKDSTYSLSSTLTLSKADYEKHKVYACEVTHQGLSSPVTKSFNRGEC
B7: humanized anti-PVRIG/TIGIT bispecific antibody 1708-30H2 (bispecific antibody, human IgG4 S228P, kappa)
heavy: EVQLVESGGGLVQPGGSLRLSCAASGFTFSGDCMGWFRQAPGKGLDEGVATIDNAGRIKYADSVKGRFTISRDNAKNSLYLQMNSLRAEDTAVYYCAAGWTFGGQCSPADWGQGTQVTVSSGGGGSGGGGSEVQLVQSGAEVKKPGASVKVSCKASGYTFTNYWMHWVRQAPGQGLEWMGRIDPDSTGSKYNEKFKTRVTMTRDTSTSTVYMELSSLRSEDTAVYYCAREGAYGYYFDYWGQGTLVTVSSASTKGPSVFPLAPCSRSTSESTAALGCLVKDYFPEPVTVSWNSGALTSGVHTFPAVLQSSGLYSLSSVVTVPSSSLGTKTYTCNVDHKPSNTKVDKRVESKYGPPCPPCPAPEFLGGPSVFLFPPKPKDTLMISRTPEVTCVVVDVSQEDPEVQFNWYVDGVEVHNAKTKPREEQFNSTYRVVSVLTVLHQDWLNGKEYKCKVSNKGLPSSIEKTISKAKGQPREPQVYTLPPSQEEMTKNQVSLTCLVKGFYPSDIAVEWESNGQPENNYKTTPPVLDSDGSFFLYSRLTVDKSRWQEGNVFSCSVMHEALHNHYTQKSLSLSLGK
light: B6 light

Biological target: T1, his-tagged human PVRIG (h-PVRIG-his) …
Experiment: BLI (Fortebio), antibody on Protein A sensor, 1:1 fit
Description: A Protein A biosensor (Fortebio, #18-5010) was immersed in 200 μL of KB buffer (PBS, pH 7.4, 0.02% tween-20, 0.1% BSA) for 60 s for the wetting treatment. Then, the anti-PVRIG antibody was diluted to 10 μg/mL with the KB buffer, and the sensor was immersed in 200 μL of the solution until the reading was 1.2 nm. The sensor was immersed in the KB buffer for 100 s to elute excess antibody. The his-tagged human PVRIG was diluted in a 2-fold gradient to 64 nM-4 nM with the KB buffer. The sensor was immersed in the solution for 300 s for binding. The sensor was immersed in the KB buffer for 600 s for dissociation. The data were fitted in a dynamic 1:1 binding mode.

| Kd [nM] | koff [s⁻¹] | kon [M⁻¹ s⁻¹] | Binder |
| --- | --- | --- | --- |
| 0.696 | 0.000169 | 242000 | B1 |
| 0.723 | 0.000205 | 284000 | B2 |
| 0.2 | 5.22e-05 | 261000 | B3 |
| 2.17 | 0.000287 | 132000 | B4 |
| 0.219 |  |  | B5 |

Biological target: T2, human PVRIG expressed on cells
Experiment: cell-based or functional assay

| Binder | NK92 killing of K562, killing activity (%), 20 nM antibody [%] | NK92 killing of K562, killing activity (%), 100 nM antibody [%] |
| --- | --- | --- |
| B1 | 32 | 30 |
| B2 | 36 | 39 |
| B3 | 35 | 33 |
| B4 | 29 | 27 |
| B5 | 32 | 32 |

Biological target: T3, his-tagged cynomolgus monkey PVRIG …
Experiment: ELISA, coated antigen
Description: (§1) ELISA assay was used to detect binding properties of anti-PVRIG antibodies. […] After the antibody was added, the activity of the binding of the antibody to the antigen was detected by adding a secondary antibody (HRP-conjugated anti-primary antibody Fc antibody) and HRP substrate TMIB.
(§2) A human, cynomolgus monkey, or mouse PVRIG protein (at a concentration of 1 μg/mL) was coated on a 96-well microplate at 100 μL per well, and incubated overnight at 4° C. The plate was washed three times with wash buffer at 250 μL per well. For each wash, the plate was shaken for 10 s to ensure adequate cleaning. A blocking solution (PBS+0.05% Tween20+1% BSA) was added at 300 μL/well, and the plate was incubated at room temperature for 1 h. The plate was washed three times with wash buffer at 250 μL per well. For each wash, the plate was shaken for 10 s to ensure adequate cleaning. Dilutions of the test anti-PVRIG antibodies were added at 100 μL/well. The plate was incubated at 37° C. for 1 h. The plate was washed three times with wash buffer at 250 μL per well. The […] anti-human IgG secondary antibody (Sigma, A8667) was added at 100 μL per well. The plate was incubated at 37° C. for 1 h. The plate was washed three times with wash buffer at 250 μL per well. TMB was added at 100 μL/well, and the plate was incubated in the dark for 15 min. 0.16 M sulfuric acid was added at 50 μL/well. The OD values at 450 nm were read by using a Thermo MultiSkanFc microplate reader, and the EC₅₀ values of the binding of the anti-PVRIG antibodies to PVRIG were calculated.

| EC50 [nM] | Binder |
| --- | --- |
| 0.16 | B1 |
| 0.16 | B2 |
| 2.43 | B3 |
| 0.4 | B4 |

Biological target: T1, his-tagged human PVRIG (h-PVRIG-his) …
Experiment: ELISA, coated antigen
Description: as §1, §2

| EC50 [nM] | Binder |
| --- | --- |
| 0.27 | B1 |
| 0.26 | B2 |
| 2.15 | B3 |
| 0.26 | B4 |
| 2.86 | B5 |

Biological target: T4, human IgG1 Fc-tagged mouse PVRIG …
Experiment: ELISA, coated antigen
Description: as §1, §2

| binding result | Binder |
| --- | --- |
| no binding | B1 |
| no binding | B2 |
| no binding | B3 |
| no binding | B4 |
| no binding | B5 |

Biological target: T2, human PVRIG expressed on cells
Experiment: cell-based or functional assay
Remark: another data set of the same source

| PVRIG reporter gene cell activity EC50 [nM] | Binder |
| --- | --- |
| 0.06 | B1 |
| 0.06 | B2 |
| 0.04 | B3 |
| 0.2 | B4 |
| 0.74 | B5 |

Biological target: cynomolgus monkey TIGIT recombinant protein (cynomolgus monkey, UniProt A0A7N9I9V4 89-209)
Experiment: ELISA, coated antigen
Description: as §2
(§3) Similarly to Examples 4, 5 and 6, the binding of humanized anti-PVRIG/TIGIT bispecific antibodies to human and cynomolgus monkey TIGIT and blocking of binding of human TIGIT to ligand were detected, where PVRIG protein was replaced with TIGIT and PVRL2 was replaced with PVR.

Sequence of cynomolgus monkey TIGIT recombinant protein (A0A7N9I9V4 entry or part of it): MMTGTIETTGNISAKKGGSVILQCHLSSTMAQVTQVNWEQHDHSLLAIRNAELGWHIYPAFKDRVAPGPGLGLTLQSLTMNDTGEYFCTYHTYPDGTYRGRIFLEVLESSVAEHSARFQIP

| EC50 [nM] | binding result | Binder |
| --- | --- | --- |
| 0.112 |  | B6 |
| 0.114 |  | B7 |
|  | no binding | B5 |

Biological target: T5, human TIGIT recombinant protein
Experiment: ELISA, coated antigen
Description: as §2, §3

| EC50 [nM] | binding result | Binder |
| --- | --- | --- |
| 0.145 |  | B6 |
| 0.153 |  | B7 |
|  | no binding | B5 |

Biological target: T3, his-tagged cynomolgus monkey PVRIG …
Experiment: ELISA, coated antigen
Remark: another data set of the same source
Description: as §2
(§4) Binding of the humanized anti-PVRIG/TIGIT bispecific antibodies to human and cynomolgus monkey PVRIG and their blocking of the ligand of human PVRIG were detected according to the methods of Examples 4, 5 and 6.

| EC50 [nM] | binding result | Binder |
| --- | --- | --- |
| 0.144 |  | B6 |
| 0.184 |  | B7 |
|  | no binding | B5 |

Biological target: T1, his-tagged human PVRIG (h-PVRIG-his) …
Experiment: ELISA, coated antigen
Remark: another data set of the same source
Description: as §2, §4

| EC50 [nM] | Binder |
| --- | --- |
| 2.47 | B6 |
| 0.32 | B7 |
| 1.41 | B5 |
